Blank lines part the entries; values can stand above or below the binder they belong to.
Assays:
PD-L2 (human) = molecular target: T1, PD-L2 (human) (human, UniProt Q9BQ51 20-219, limits assumed); experiment: ELISA, antigen coated at 0.5 µg per well, biotinylated nanobody, streptavidin-HRP
T1 construct: also called PD-L1 family members
T1 sequence (looked up): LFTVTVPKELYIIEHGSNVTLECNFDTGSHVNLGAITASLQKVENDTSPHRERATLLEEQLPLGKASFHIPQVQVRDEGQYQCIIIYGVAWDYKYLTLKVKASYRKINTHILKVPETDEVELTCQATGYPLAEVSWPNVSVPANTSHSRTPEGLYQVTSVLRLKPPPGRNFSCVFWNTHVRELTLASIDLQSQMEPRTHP
Experimental: (§1) (2) The antigen proteins PD-L1 (human), PD-L1 (rat), PD-L1 (monkey), PD-L2 (human), B7H4 (human), B7H3 (human) were coated: 0.5 μg per well (5 μg/mL, 100 μL), IgG1 was coated as a control, left overnight at 4° C.;
(§2) (4) Each biotinylated nanobodies were diluted to 10 μg/mL, and 100 μL of each was incubated in each well and allowed to react at RT for 1 hour.
(§3) (5) The unbound nanobodies were washed with PBST, 100 μL of streptavidin-HRP (1:1000 dilution) was added, and the resultant was let stand for 1 hour at room temperature.

B7H4 (human) = molecular target: T2, B7H4 (human) (human, UniProt Q7Z7D3 25-258, limits assumed); experiment: as above
T2 construct: also called PD-L1 family members
T2 sequence (looked up): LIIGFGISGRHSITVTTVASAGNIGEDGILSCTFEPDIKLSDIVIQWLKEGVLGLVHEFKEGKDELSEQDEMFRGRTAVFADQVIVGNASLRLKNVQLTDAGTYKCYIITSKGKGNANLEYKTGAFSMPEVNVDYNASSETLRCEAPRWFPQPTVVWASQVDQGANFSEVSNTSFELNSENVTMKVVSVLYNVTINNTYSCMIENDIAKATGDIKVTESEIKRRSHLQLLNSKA
Experimental: as §1, §2, §3

B7H3 (human) = molecular target: T3, B7H3 (human) (human, UniProt Q5ZPR3 29-461, limits assumed); experiment: as above
T3 construct: also called PD-L1 family members
T3 sequence (looked up): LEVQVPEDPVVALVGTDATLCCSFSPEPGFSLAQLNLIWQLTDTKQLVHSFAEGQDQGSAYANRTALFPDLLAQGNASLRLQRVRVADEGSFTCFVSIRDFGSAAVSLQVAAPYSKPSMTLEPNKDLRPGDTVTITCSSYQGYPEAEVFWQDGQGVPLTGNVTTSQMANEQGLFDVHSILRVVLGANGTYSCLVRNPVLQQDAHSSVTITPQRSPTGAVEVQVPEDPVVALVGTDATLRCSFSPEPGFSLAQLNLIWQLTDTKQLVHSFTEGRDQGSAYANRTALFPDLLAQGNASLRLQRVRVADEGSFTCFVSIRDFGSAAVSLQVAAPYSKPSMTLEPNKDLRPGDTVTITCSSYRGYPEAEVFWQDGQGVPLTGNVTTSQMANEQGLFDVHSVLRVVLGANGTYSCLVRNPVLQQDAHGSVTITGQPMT
Experimental: as §1, §2, §3

[1] = molecular target: T4, PD-L1 (human) antigen protein (human, UniProt Q9NZQ7 19-238, limits assumed); experiment: SPR, BiaCore T200, antigen immobilized on CM-5 chip, nanobody in five concentrations
T4 construct: also called human PD-L1; immobile phase antigens
T4 sequence (Q9NZQ7 19-238 limits assumed): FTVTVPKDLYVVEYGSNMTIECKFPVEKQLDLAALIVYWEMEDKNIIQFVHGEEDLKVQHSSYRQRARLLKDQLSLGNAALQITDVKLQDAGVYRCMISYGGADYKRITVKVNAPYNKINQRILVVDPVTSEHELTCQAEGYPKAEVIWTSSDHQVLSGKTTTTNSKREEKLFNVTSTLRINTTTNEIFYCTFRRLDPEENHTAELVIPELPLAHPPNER
Experimental: BiaCore T200 was used for detection. (1) Immobilization: The immobile phase antigens were immobilized on the surface of a CM-5 sensor chip using a carboxy-amino reaction;
(2) Binding: The nanobodies were diluted with HBS buffer to an appropriate concentration (five concentration gradients) to observe the antigen-nanobody binding process;
(4) Analysis of the experimental results.

binding result (PD-L2 (human)): no binding (tested: 10 µg/mL) | binding result (B7H4 (human)): no binding (tested: 10 µg/mL) | binding result (B7H3 (human)): no binding (tested: 10 µg/mL) | Kd [1]: 2.34 nM
B1: PD-L1 Nb-Fc protein (nanobody before humanization fused to IgG1 Fc) (Fc fusion)
chain: QVQLQESGGGSVQAGGSLRLSCQASAYTISRNSMGWFRQAPGKQREGVAAIESDGSTSYSDSVKGRFTISLGNAKNTLYLEMNSLKPEDTAMYYCAAPKVGLGPRTALGHLAFMTLPALNYWGQGTQVTVSS
notes: also called PD-L1 nanobodies; nanobodies before humanization; not shown: IgG1 Fc encoded by the pFUSE-IgG1 vector (Invivogen)

binding result (PD-L2 (human)): no binding (tested: 10 µg/mL) | binding result (B7H4 (human)): no binding (tested: 10 µg/mL) | binding result (B7H3 (human)): no binding (tested: 10 µg/mL) | Kd [1]: 2.26 nM
B2: humanized PD-L1 nanobody with Fc tag (humanized Nb-Fc) (Fc fusion)
chain: QVQLQESGGGLVQPGGSLRLSCAASAYTISRNSMGWFRQAPGKGLEGVAAIESDGSTSYSDSVKGRFTISLDNSKNTLYLEMNSLRAEDTAVYYCAAPKVGLGPRTALGHLAFMTLPALNYWGQGTLVTVSS
notes: also called humanized PD-L1 nanobodies; humanized nanobodies; not shown: IgG1 Fc encoded by the pFUSE-IgG1 vector (Invivogen)

From US20190023793A1 (Innovent, published 2019)
